The values that follow come from patent US5994296A, “Human mutant tissue factor compositions useful as tissue factor antagonists” (priority 1998, dated 1999).

This test has as its system recalcified plasma. The test can be described thus: one stage clotting (coagulation) assay of full-length TF mutants in CHO cell lysates. The class given is biochemical. The conditions noted are these: for reduction in specific functional activity (loss of function) relative to wild-type TF: coagulant activity normalized to antigen concentration, full-length mutants expressed in CHO cells; for reduction in tissue factor procoagulant cofactor activity when compared to wt-TF: summary statement in the description. The protocol:
The full-length TF mutants prepared above were analyzed for function by coagulation assay. […] Coagulation factor deficient plasmas were purchased from George King Bio-medical. The chromogenic substrate, Spectrozyme FXa, was from American Diagnostica Inc. (Greenwich, Conn.).
An alternative approach was to use a polyvalent antibody purified by affinity for capturing TF followed by detection with the TF8-5G9 monoclonal antibody described above.
Initiation of coagulation by wild-type and mutant TF in recalcified plasma was determined after lysis of cell pellets from 2×10^6 cells/ml for each expressed full-length mutant with 15 mM octyl-glucopyranoside in HBS for 15 minutes at 37C. followed by a 3-fold dilution.
All data represented are based on at least three independent determinations performed in duplicate.

B1: Ser-16: human tissue factor mutant with alanine substituted for Ser-16 (protein, UniProt P13726 33-295, looked up, variant S16A)
Tissue factor: SGTTNTVAAYNLTWKATNFKTILEWEPKPVNQVYTVQISTKSGDWKSKCFYTTDTECDLTDEIVKDVKQTYLARVFSYPAGNVESTGSAGEPLYENSPEFTPYLETNLGQPTIQSFEQVGTKVNVTVEDERTLVRRNNTFLSLRDVFGKDLIYTLYYWKSSSSGKKTAKTNTNEFLIDVDKGENYCFSVQAVIPSRTVNRKSTDSPVECMGQEKGEFREIFYIIGAVVFVVIILVIILAISLHKCRKAGVGQSWKENSPLNVS
With B1, the “reduction in specific functional activity (loss of function) relative to wild-type TF” value is listed as “more than 70%” and the “reduction in tissue factor procoagulant cofactor activity when compared to wt-TF” value is at least 75%.

B2: S39-T40-S42: human tissue factor triple mutant with alanines at positions 39, 40 and 42 (protein, UniProt P13726 33-295, looked up, variant S39A T40A S42A)
Tissue factor: SGTTNTVAAYNLTWKSTNFKTILEWEPKPVNQVYTVQIAAKAGDWKSKCFYTTDTECDLTDEIVKDVKQTYLARVFSYPAGNVESTGSAGEPLYENSPEFTPYLETNLGQPTIQSFEQVGTKVNVTVEDERTLVRRNNTFLSLRDVFGKDLIYTLYYWKSSSSGKKTAKTNTNEFLIDVDKGENYCFSVQAVIPSRTVNRKSTDSPVECMGQEKGEFREIFYIIGAVVFVVIILVIILAISLHKCRKAGVGQSWKENSPLNVS
Regarding B2, the “reduction in specific functional activity (loss of function) relative to wild-type TF” value came out at 43%.

B3: Asp-145: human tissue factor alanine mutant at Asp-145 (protein, UniProt P13726 33-295, looked up, variant D145A)
Tissue factor: SGTTNTVAAYNLTWKSTNFKTILEWEPKPVNQVYTVQISTKSGDWKSKCFYTTDTECDLTDEIVKDVKQTYLARVFSYPAGNVESTGSAGEPLYENSPEFTPYLETNLGQPTIQSFEQVGTKVNVTVEDERTLVRRNNTFLSLRAVFGKDLIYTLYYWKSSSSGKKTAKTNTNEFLIDVDKGENYCFSVQAVIPSRTVNRKSTDSPVECMGQEKGEFREIFYIIGAVVFVVIILVIILAISLHKCRKAGVGQSWKENSPLNVS
Consider B3, for which the “reduction in specific functional activity (loss of function) relative to wild-type TF” value is listed as 30-50%.

B4: K65-D66-K68: human tissue factor triple alanine mutant at positions 65, 66 and 68 (protein, UniProt P13726 33-295, looked up, variant K65A D66A K68A)
Tissue factor: SGTTNTVAAYNLTWKSTNFKTILEWEPKPVNQVYTVQISTKSGDWKSKCFYTTDTECDLTDEIVAAVAQTYLARVFSYPAGNVESTGSAGEPLYENSPEFTPYLETNLGQPTIQSFEQVGTKVNVTVEDERTLVRRNNTFLSLRDVFGKDLIYTLYYWKSSSSGKKTAKTNTNEFLIDVDKGENYCFSVQAVIPSRTVNRKSTDSPVECMGQEKGEFREIFYIIGAVVFVVIILVIILAISLHKCRKAGVGQSWKENSPLNVS
On to B4, for which the “reduction in specific functional activity (loss of function) relative to wild-type TF” value is 70%.

B5: Thr-17: human tissue factor mutant with alanine substituted for Thr-17 (protein, UniProt P13726 33-295, looked up, variant T17A)
Tissue factor: SGTTNTVAAYNLTWKSANFKTILEWEPKPVNQVYTVQISTKSGDWKSKCFYTTDTECDLTDEIVKDVKQTYLARVFSYPAGNVESTGSAGEPLYENSPEFTPYLETNLGQPTIQSFEQVGTKVNVTVEDERTLVRRNNTFLSLRDVFGKDLIYTLYYWKSSSSGKKTAKTNTNEFLIDVDKGENYCFSVQAVIPSRTVNRKSTDSPVECMGQEKGEFREIFYIIGAVVFVVIILVIILAISLHKCRKAGVGQSWKENSPLNVS
As for B5, the “reduction in specific functional activity (loss of function) relative to wild-type TF” value is “more than 70%” and the “reduction in tissue factor procoagulant cofactor activity when compared to wt-TF” value is at least 75%.

B6: S16-T17-K20: human tissue factor triple mutant with alanines at positions 16, 17 and 20 (protein, UniProt P13726 33-295, looked up, variant S16A T17A K20A)
Tissue factor: SGTTNTVAAYNLTWKAANFATILEWEPKPVNQVYTVQISTKSGDWKSKCFYTTDTECDLTDEIVKDVKQTYLARVFSYPAGNVESTGSAGEPLYENSPEFTPYLETNLGQPTIQSFEQVGTKVNVTVEDERTLVRRNNTFLSLRDVFGKDLIYTLYYWKSSSSGKKTAKTNTNEFLIDVDKGENYCFSVQAVIPSRTVNRKSTDSPVECMGQEKGEFREIFYIIGAVVFVVIILVIILAISLHKCRKAGVGQSWKENSPLNVS
Turning to B6, the “reduction in specific functional activity (loss of function) relative to wild-type TF” value came out at 98%.

B7: Val-146: human tissue factor alanine mutant at Val-146 (protein, UniProt P13726 33-295, looked up, variant V146A)
Tissue factor: SGTTNTVAAYNLTWKSTNFKTILEWEPKPVNQVYTVQISTKSGDWKSKCFYTTDTECDLTDEIVKDVKQTYLARVFSYPAGNVESTGSAGEPLYENSPEFTPYLETNLGQPTIQSFEQVGTKVNVTVEDERTLVRRNNTFLSLRDAFGKDLIYTLYYWKSSSSGKKTAKTNTNEFLIDVDKGENYCFSVQAVIPSRTVNRKSTDSPVECMGQEKGEFREIFYIIGAVVFVVIILVIILAISLHKCRKAGVGQSWKENSPLNVS
Take B7: the “reduction in specific functional activity (loss of function) relative to wild-type TF” value is 30-50%.

B8: Phe-147: human tissue factor alanine mutant at Phe-147 (protein, UniProt P13726 33-295, looked up, variant F147A)
Tissue factor: SGTTNTVAAYNLTWKSTNFKTILEWEPKPVNQVYTVQISTKSGDWKSKCFYTTDTECDLTDEIVKDVKQTYLARVFSYPAGNVESTGSAGEPLYENSPEFTPYLETNLGQPTIQSFEQVGTKVNVTVEDERTLVRRNNTFLSLRDVAGKDLIYTLYYWKSSSSGKKTAKTNTNEFLIDVDKGENYCFSVQAVIPSRTVNRKSTDSPVECMGQEKGEFREIFYIIGAVVFVVIILVIILAISLHKCRKAGVGQSWKENSPLNVS
B8: the “reduction in specific functional activity (loss of function) relative to wild-type TF” value was 30-50%.

B9: Phe-19: human tissue factor mutant with alanine substituted for Phe-19 (protein, UniProt P13726 33-295, looked up, variant F19A)
Tissue factor: SGTTNTVAAYNLTWKSTNAKTILEWEPKPVNQVYTVQISTKSGDWKSKCFYTTDTECDLTDEIVKDVKQTYLARVFSYPAGNVESTGSAGEPLYENSPEFTPYLETNLGQPTIQSFEQVGTKVNVTVEDERTLVRRNNTFLSLRDVFGKDLIYTLYYWKSSSSGKKTAKTNTNEFLIDVDKGENYCFSVQAVIPSRTVNRKSTDSPVECMGQEKGEFREIFYIIGAVVFVVIILVIILAISLHKCRKAGVGQSWKENSPLNVS
B9: the “reduction in specific functional activity (loss of function) relative to wild-type TF” value is on record as “more than 70%”.

B10: Val-198: human tissue factor alanine mutant at Val-198 (protein, UniProt P13726 33-295, looked up, variant V198A)
Tissue factor: SGTTNTVAAYNLTWKSTNFKTILEWEPKPVNQVYTVQISTKSGDWKSKCFYTTDTECDLTDEIVKDVKQTYLARVFSYPAGNVESTGSAGEPLYENSPEFTPYLETNLGQPTIQSFEQVGTKVNVTVEDERTLVRRNNTFLSLRDVFGKDLIYTLYYWKSSSSGKKTAKTNTNEFLIDVDKGENYCFSVQAVIPSRTANRKSTDSPVECMGQEKGEFREIFYIIGAVVFVVIILVIILAISLHKCRKAGVGQSWKENSPLNVS
As to B10, the “reduction in specific functional activity (loss of function) relative to wild-type TF” value is listed as 30-80%.
